Measured values reported in article PMC11888354.

Biological target: nucleosome with Cy5-labeled human histone octamer (H2A(K119C), H2B, H3(C110A), H4) reconstituted on lambda DNA (human) (UniProt P06899)
Experiment: single-molecule fluorescence colocalisation

Cy3-labeled human linker histone H1.0(S22C) (from UniProt P07305 1-194) (natural protein)
nucleosome co-localization dwell time τ slow (with 2 nM Nap1): 1.1 s
